Measured values taken from US20150030595A1 (ANTIBODY AND RECEPTOR THERAPEUTICS, published 2015).

How the values were obtained:
[1] = biological target: T1, C-terminally active myostatin (R&D systems) (UniProt O14793 267-375, limits assumed); experiment: ELISA on coated myostatin, one site binding (hyperbola) fit
T1 construct: mature
T1 sequence (looked up): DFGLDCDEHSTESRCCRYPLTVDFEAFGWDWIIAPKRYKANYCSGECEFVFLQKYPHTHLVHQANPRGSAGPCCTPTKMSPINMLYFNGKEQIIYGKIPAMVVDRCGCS
Method: An immunoplate was coated overnight with 1 μg/ml of C-terminally active myostatin (R&D systems) at 4° C., washed three times with 0.05% PBST Tween 20, and then blocked with 4% skim milk/0.05% PBST Tween 20 at room temperature for 30 minutes. […] Finally, when the reaction was blocked with 2.5 M H₂SO₄, the optical densities were measured and analyzed at 420 nm.
Based on the experiment, a KD value was also determined by analyzing one site binding (hyperbola) using a GraphPad Reism 4 program.

ACVR2B-Fc fusion protein [2] = biological target: T2, ACVR2B-Fc fusion protein (human, UniProt Q13705 19-137); experiment: SPR (ProteOn XPR36), ACVR2B-Fc coated
T2 construct: also called water-soluble ACVR2B
T2 sequence: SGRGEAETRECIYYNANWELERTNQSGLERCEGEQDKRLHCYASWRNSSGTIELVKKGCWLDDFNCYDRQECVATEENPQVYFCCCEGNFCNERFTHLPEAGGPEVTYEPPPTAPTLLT
Method: This experiment was performed using a ProteOn XPR36 instrument (Bio-Rad). First, a sensor chip (GLC) was activated by reacting 0.1 M EDC and 0.025 M sulfo-NHS (Bio-Rad) for 60 seconds. […] The coating procedure was completed by allowing 1 M ethanolamine-HCl) (pH 8.5) to flow at the coated chip for 200 seconds. To test the bound proteins, the chip was rotated at an angle of 90°, and stabilized by allowing DPBST (PBS with 0.005% Tween 20) to flow on the chip for 30 minutes.

ACVR2B-Fc fusion protein [3] = biological target: T2, ACVR2B-Fc fusion protein; experiment: SPR (ProteOn XPR36), ACVR2B-Fc coated, in the presence of B09

B1: DLK1-Fc fusion protein (Fc fusion, not shown: a dimerising Fc or GST)
chain: AECFPACNPQNGFCEDDNVCRCQPGWQGPLCDQCVTSPGCLHGLCGEPGQCICTDGWDGELCDRDVRACSSAPCANNGTCVSLDDGLYECSCAPGYSGKDCQKKDGPCVINGSPCQHGGTCVDDEGRASHASCLCPPGFSGNFCEIVANSCTPNPCENDGVCTDIGGDFRCRCPAGFIDKTCSRPVTNCASSPCQNGGTCLQHTQVSYECLCKPEFTGLTCVKKRALSPQQVTRLPSGYGLAYRLTPGVHELPVQQPEHRILKVSMKELNKKTPLLTEG
notes: also called DLK-Fc
- Kd [1]: 22.8 nM
- Kd (ACVR2B-Fc fusion protein [2]): 1.31 nM
- koff (ACVR2B-Fc fusion protein [2]): 0.000434 s⁻¹
- kon (ACVR2B-Fc fusion protein [2]): 331000 M⁻¹ s⁻¹
- Kd (ACVR2B-Fc fusion protein [3]): 0.407 nM
- koff (ACVR2B-Fc fusion protein [3]): 0.000255 s⁻¹
- kon (ACVR2B-Fc fusion protein [3]): 626000 M⁻¹ s⁻¹
